Measured values: article PMC3698177

Molecular target: phosphorylated β-catenin (UniProt P35222)
Experiment: co-immunoprecipitation (IP-GFP), western blot densitometry
Conditions: Triton-X100 cell extracts containing 50 mM NaF; SW480 extract as source of β-catenin; parent: 1

Sequence of UniProt P35222 (P35222 whole entry): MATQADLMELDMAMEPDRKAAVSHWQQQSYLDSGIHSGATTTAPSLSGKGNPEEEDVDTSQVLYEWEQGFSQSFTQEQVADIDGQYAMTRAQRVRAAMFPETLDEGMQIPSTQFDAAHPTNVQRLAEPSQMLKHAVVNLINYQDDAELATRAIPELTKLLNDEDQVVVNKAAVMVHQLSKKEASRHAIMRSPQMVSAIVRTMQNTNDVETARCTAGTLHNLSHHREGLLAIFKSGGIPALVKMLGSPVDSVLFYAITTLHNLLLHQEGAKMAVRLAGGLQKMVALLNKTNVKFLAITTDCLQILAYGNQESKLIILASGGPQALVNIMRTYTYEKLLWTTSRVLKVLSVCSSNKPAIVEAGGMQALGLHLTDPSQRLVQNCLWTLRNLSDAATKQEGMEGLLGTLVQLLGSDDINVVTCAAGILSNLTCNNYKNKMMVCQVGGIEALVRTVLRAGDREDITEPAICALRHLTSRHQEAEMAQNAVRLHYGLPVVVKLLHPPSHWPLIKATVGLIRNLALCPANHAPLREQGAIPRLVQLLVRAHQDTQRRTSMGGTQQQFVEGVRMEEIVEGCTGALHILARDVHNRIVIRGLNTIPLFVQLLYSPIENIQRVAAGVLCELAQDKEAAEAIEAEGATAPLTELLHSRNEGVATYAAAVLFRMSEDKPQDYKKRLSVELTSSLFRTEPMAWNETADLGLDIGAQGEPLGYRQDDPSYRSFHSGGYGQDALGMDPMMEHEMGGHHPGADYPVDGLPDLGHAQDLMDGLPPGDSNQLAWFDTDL

other: Ratio Phospho/total: 0.9
Substance: yAPC1289 (from UniProt P25054) 20R1µ
